In patent US20100196361A1, “Method of inhibition of vascular development using an antibody” (DYAX CORP., priority 2003, published 2010):
Numbering of substitutions follows the chain as printed.

Assays:
[1] = target: T1, human Tie1 Fc (Homo sapiens, UniProt P35590); experiment: BIAcore, Fab over Tie1/Fc coated on CM5 chip; assay type: binding; conditions: Fab analyte
T1 construct: selected against the Tie1 extracellular domain fused to human Fc or to a histidine purification tag
T1 sequence (P35590 22-759 limits assumed): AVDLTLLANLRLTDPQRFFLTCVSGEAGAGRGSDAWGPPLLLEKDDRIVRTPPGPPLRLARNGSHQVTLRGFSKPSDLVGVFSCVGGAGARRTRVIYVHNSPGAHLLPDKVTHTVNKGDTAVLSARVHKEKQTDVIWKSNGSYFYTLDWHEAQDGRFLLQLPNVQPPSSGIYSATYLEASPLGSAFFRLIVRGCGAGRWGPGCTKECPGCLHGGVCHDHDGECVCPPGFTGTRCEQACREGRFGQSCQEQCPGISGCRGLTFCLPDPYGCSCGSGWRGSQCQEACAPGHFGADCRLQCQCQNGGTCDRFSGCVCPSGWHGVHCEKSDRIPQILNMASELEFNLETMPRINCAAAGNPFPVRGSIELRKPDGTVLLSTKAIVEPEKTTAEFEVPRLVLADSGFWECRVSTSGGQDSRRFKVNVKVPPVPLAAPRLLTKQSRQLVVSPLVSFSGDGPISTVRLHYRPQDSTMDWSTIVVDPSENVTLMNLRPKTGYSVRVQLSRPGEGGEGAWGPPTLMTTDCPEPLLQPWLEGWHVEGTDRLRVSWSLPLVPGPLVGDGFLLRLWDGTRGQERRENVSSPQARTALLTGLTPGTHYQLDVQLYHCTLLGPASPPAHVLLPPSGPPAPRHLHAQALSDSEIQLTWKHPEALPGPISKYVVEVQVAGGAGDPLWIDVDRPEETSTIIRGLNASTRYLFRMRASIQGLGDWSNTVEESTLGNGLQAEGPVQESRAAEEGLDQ
Text: To evaluate if the binding behaviour had been affected in any way by the conversion of the somatic mutations back to germline residues, the parental and the germlined E3b antibodies were produced and tested in Biacore as Fab fragments. Here, by contrast to what was done for the IgGs (see Example 28), and in order to measure a monovalent interaction, the Fabs were run over the antigen directly coated onto the surface.
Recombinant human Tie1/Fc was coated on a CM5 chip. The surface of the chip was first activated with a 7-minute pulse of 0.05 M NHS/0.2 M EDC, then Tie1/Fc (2 μg/ml in 10 mM sodium acetate, pH 4.0) was run over the chip surface until 750 RUs were coated on the surface. All flow cells were subsequently deactivated with a 7-minute pulse of 1 M ethanolamine hydrochloride, pH 8.5. All further experiments were performed in HBS buffer.
The parental and the germlined E3b Fabs were prepared. A series of dilution (50, 25, 12.5, 6.25 and 3.125 nM) was prepared in HBS buffer. Samples were injected at 30 μl/min for 5.3 minutes using the KINJECT™ program. This was followed by a 10-minute dissociation phase, and the remaining Fab was stripped from the surface with a single 18-sec injection of 50 mM NaOH/1 M NaCl.
Sensorgrams were analyzed using the simultaneous ka/kd fitting program from the BIAEVALUATION™ software 3.1 assuming a 1:1 model.

[2] = target: T2, human Tie1-Fc fusion protein (Homo sapiens, UniProt P35590); experiment: BIAcore 3000 affinity analysis of Fab and IgG; assay type: binding
T2 construct: selected against the Tie1 extracellular domain fused to human Fc or to a histidine purification tag
T2 sequence (P35590 22-759 limits assumed): T1 sequence (P35590 22-759 limits assumed)
Method: Affinity analysis of the Fab and IgGs was performed using surface plasmon resonance using a BIAcore 3000 instrument. For this analysis both dimeric (Tie1-Fc fusion protein) and monomeric (Tie1-HIS) versions of the extracellular domain of the Tie1 were used. The sensor chips used in these experiments were CM5 (dextran-coated) which allow immobilization of proteins to the chip via standard amine coupling chemistries. The concentration of flowed antibody was determined using a surface plasmon resonance based method. Using a high-density protein A sensor chip, under mass transport limited conditions, the response signal is dependent only on the concentration of the antibody in the sample under test. This approach allows a precise determination of the antibody concentration, a parameter important for accurate determination of the KD.
470 RUs of Tie1 HIS protein were coated on a CM5 sensor chip and 5, 20, 100, and 500 nM of the Fab flowed over the chip at four different flow rates ([…]), rates in which the system is not mass transport limited. Kinetic data was typically determined using a range of analyte concentrations and three different chip coating densities. The data from the lowest coating density that gave a good signal was typically chosen, this was often in a range from 50-100 RUs. Using such low coating densities allowed the sensor curves to be fit using BIAEVALUATION™ 3.0 software to a 1:1 model, often even when using a bivalent analyte (IgG or Tie1-Fc fusion protein). For bivalent analytes, when fit to a 1:1 model was not possible, the curves were fit using a 2:1 model.
The anti-Tie1 antibodies described here bind to both human and mouse Tie1 molecules. The binding of the anti-Tie1 Fab to mouse Tie1-Fc fusion protein was compared with the binding of the anti-Tie1 Fab to human Tie1-Fc fusion protein. In both of these experiments the Tie1-Fc fusion protein was immobilized on the sensor chip and the anti Tie-1 Fab served as the analyte. Under these experimental conditions the anti-Tie1 Fab has very similar KD (˜3 nM) values for both the human and mouse Tie1-Fc fusion proteins (Table 9). Under conditions that are likely to mimic those used in the animal efficacy experiments, i.e. Tie1-Fc immobilized to the CM5 sensor chip and anti-Tie1 used as the analyte, the measured KD was 0.2 nM.

[3] = target: Tie1 (Homo sapiens, UniProt P35590); experiment: Competition with E3 for binding to Tie1
Sequence of Tie1 (P35590 22-1138): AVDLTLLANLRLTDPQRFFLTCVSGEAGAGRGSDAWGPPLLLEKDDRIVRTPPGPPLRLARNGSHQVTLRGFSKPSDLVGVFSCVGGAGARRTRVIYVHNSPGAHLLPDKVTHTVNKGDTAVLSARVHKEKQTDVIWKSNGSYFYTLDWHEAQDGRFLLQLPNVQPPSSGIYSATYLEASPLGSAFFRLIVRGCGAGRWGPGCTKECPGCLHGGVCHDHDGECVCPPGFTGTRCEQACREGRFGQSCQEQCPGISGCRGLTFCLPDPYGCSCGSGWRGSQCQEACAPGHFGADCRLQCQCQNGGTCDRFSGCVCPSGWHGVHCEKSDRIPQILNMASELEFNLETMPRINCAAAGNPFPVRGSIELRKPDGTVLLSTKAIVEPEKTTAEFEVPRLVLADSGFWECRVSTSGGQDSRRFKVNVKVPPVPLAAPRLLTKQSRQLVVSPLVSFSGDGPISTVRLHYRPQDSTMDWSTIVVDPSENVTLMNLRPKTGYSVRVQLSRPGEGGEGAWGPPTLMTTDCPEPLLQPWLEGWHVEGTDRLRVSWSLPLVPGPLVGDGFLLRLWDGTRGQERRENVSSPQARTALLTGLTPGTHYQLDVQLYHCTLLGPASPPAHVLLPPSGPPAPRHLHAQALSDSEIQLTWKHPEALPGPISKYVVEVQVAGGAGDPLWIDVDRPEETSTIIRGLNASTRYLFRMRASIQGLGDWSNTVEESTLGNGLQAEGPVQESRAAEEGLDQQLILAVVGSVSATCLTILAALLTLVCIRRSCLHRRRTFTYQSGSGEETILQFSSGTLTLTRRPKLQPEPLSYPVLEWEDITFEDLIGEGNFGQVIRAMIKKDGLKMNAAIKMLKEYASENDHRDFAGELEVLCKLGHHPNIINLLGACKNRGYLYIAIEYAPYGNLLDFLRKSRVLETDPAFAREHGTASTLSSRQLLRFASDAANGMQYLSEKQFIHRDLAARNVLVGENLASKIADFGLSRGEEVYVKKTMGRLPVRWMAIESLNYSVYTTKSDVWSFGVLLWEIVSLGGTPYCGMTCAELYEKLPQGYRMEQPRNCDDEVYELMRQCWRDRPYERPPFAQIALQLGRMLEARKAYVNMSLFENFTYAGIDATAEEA

B1: E3b Fab: Fab with germlined HC and germlined LC sequence of E3 (antibody, V domains shown)
VH: EVQLLESGGGLVQPGGSLRLSCAASGFTFSMYGMVWVRQAPGKGLEWVSVISPSGGNTGYADSVKGRFTISRDNSKNTLYLQMNSLRAEDTAVYYCARAPRGYSYGYYYWGQGTLVTVSS
VL: DIQMTQSPSSLSASVGDRVTITCRASQGIGHYLAWYQQKPGKVPKLLIYTASTLQSGVPSRFSGSGSGTDFTLTISSLQPEDVATYYCQQFNSYPHTFGQGTRLEIK
koff ([1]; Human Tie1 Fc coated on CM5): 0.00101 s⁻¹
kon ([1]; Human Tie1 Fc coated on CM5, 750 RU): 136000 M⁻¹ s⁻¹
Kon [2]: 9300 M⁻¹ s⁻¹
koff [2]: 4.41e-05 s⁻¹

B2: M0055E10: Tie1-binding antibody; LC SEQ ID NO:492, HC SEQ ID NO:494 (antibody, V domains shown)
VH: EVQLLESGGGLVQPGGSLRLSCAASGFTFSAYPMFWVRQAPGKGLEWVSVISPSGGQTSYADSVKGRFTISRDNSKNTLYLQMNSLRAEDTAVYYCAKSFSGLAALDFWGQGTLVTVSS
VL: QDIQMTQSPATLSLSPGERATLSCRASQSVRTYLGWYQQKHGQAPRLLIYDASNRATGIPARFSGSGSGTDFTLTISSLEPEDFAVYYCQQRSNWPLTFGGGTKVEIK
modifications: Antibody
competition with E3 for binding to Tie1 [3]: competes with E3 for binding to Tie1

B3: M0054H10: Tie1-binding antibody; LC SEQ ID NO:448, HC SEQ ID NO:450 (antibody, V domains shown)
VH: EVQLLESGGGLVQPGGSLRLSCAASGFTFSQYPMIWVRQAPGKGLEWVSVISPSGGHTSYADSVKGRFTISRDNSKNTLYLQMNSLRAEDTAVYYCARIQYYGGAFDIWGQGKMVTVSS
VL: B2 VL with R31S, T32I, G35A, H41P, G58D, N94S, L97I, G101L, K104R, V105L
modifications: Antibody
competition with E3 for binding to Tie1 [3]: competes with E3 for binding to Tie1

B4: M0060H01: Tie1-binding antibody; LC SEQ ID NO:628, HC SEQ ID NO:630 (antibody, V domains shown)
VH: EVQLLESGGGLVQPGGSLRLSCAASGFTFSYYPMVWVRQAPGKGLEWVSVIVPSGGFTAYADSVKGRFTISRDNSKNTLYLQMNSLRAEDTAMYYCARKRPGNAFDIWGQGTMVTVSS
VL: B2 VL with R31S, T32S, G35A, H41P, L97V, G101Q, K104R, V105L
modifications: Antibody
competition with E3 for binding to Tie1 [3]: competes with E3 for binding to Tie1

B5: M0058F03: Tie1-binding antibody; LC SEQ ID NO:604, HC SEQ ID NO:606 (antibody, V domains shown)
VH: EVQLLESGGGLVQPGGSLRLSCAASGFTFSDYGMAWVRQAPGKGLEWVSVISPSGGQTAYADSVKGRFTISRDNSKNTLYLQMNSLRAEDTAVYYCATVRWFGAFDYWGQGTLVTVSS
VL: QDIQMTQSPSTLSASVGDRVTITCRASQGISNYLAWYQQKPGKVPKLLIYGASNLQSGVSSRFSGSGSATDFTLTISSLQPEDFATYYCQQFNSYPLTFGGGTKVEIK
modifications: Antibody
competition with E3 for binding to Tie1 [3]: competes with E3 for binding to Tie1
